# Data as given in US20230134571A1 (INTERNATIONAL AIDS VACCINE INITIATIVE, published 2023).
# Where a chain is given by its changes, count along the chain named.
# B1: ePGDM13 (antibody, V domains shown)
# VH: QAQLVQSGPEVRKPGTSVKVSCKNPGNTLTTYDLHWVRQVPGQGLQWMGWISHEGDKKVIVERFKAKVTIDWDRSTNTAYLQLSGLTSEDTAVYYCAKGSKHRLRDYALYDEDGALNWAVDVDYLANLEFWGQGTAVTVSS
# VL: DIVLTQSPLSLSVTPGESASISCKSSHSLQHGDRNNYLAWYVQKPGRSPQLLLDLASERASGVPDRFSGSGSEKDFTLKISRVETEDVGTYYCMQGRESPWTFGQGTKVDIK
# B2: ePGDM5 (antibody, V domains shown)
# VH: B1 VH
# VL: B1 VL with I2F, S26D, L53I, E73R, S81D, T85A
# B3: ePGDM9 (antibody, V domains shown)
# VH: B1 VH
# VL: B1 VL with H27Q, Q30I, L53I, E73R
# B4: PGDM1400 (antibody, V domains shown)
# VH: B1 VH with A2V, Q3H, V5T, N24A, T30K, Q39S, E89G, E112D, A126S
# VL: B1 VL with I2F, L9H, Q30I, L53I, D54Y, E58S, E73D
# Experiments:
# Assay in all cases: cell-based or functional assay
# [1] = target: HIV Env of isolate ZM249M.PL1 (clade C) (HIV)
# [2] = target: HIV Env of isolate 231965.c01 (clade D) (HIV)
# [3] = target: HIV Env of isolate P0402_C2_11 (clade G) (HIV)
# [4] = target: HIV Env of isolate P1981_C5_3 (clade G) (HIV)
# [5] = target: HIV Env of isolate X1193_C1 (clade G) (HIV)
# [6] = target: HIV Env of isolate X1632_S2_B10 (clade G) (HIV)
# [7] = target: HIV Env of isolate 6041.v3.c23 (clade AC) (HIV)
# [8] = target: HIV Env of isolate 6545.v4.c1 (clade AC) (HIV)
# [9] = target: HIV Env of isolate C1080.c03 (clade AE) (HIV)
# [10] = target: HIV Env of isolate CNE5 (clade AE) (HIV)
# [11] = target: HIV Env of isolate R2184.c04 (clade AE) (HIV)
# [12] = target: HIV Env of isolate T250-4 a.k.a. CRF250 (clade AG) (HIV)
# [13] = target: HIV Env of isolate T255-34 (clade AG) (HIV)
# [14] = target: HIV Env of isolate 62357_14_D3_4589 (clade B) (HIV)
# [15] = target: HIV Env of isolate 1006_11_C3_1601 (clade B) (HIV)
# [16] = target: HIV Env of isolate AC10.0.29 (clade B) (HIV)
# [17] = target: HIV Env of isolate RHPA4259.7 (clade B) (HIV)
# [18] = target: HIV Env of isolate SC05_8C11_2344 (clade B) (HIV)
# [19] = target: HIV Env of isolate WEAU_d15_410_5017 (clade B) (HIV)
# [20] = target: HIV Env of isolate WITO4160.33 (clade B) (HIV)
# [21] = target: HIV Env of isolate CNE21 (clade BC) (HIV)
# [22] = target: HIV Env of isolate CNE30 (clade BC) (HIV)
# [23] = target: HIV Env of isolate 191955_A11 (clade A) (HIV)
# [24] = target: HIV Env of isolate Ce2010_F5 (clade C) (HIV)
# [25] = target: HIV Env of isolate Ce704809221_1B3 (clade C) (HIV)
# [26] = target: HIV Env of isolate Du172.17 (clade C) (HIV)
# [27] = target: HIV Env of isolate HIV-0013095-2.11 (clade C) (HIV)
# [28] = target: HIV Env of isolate ZM135M.PL10a (clade C) (HIV)
Binder,IC50 (µg/ml) with constrains [1],IC50 (µg/ml) with constrains [2],IC50 (µg/ml) with constrains [3],IC50 (µg/ml) with constrains [4],IC50 (µg/ml) with constrains [5],IC50 (µg/ml) with constrains [6],IC50 (µg/ml) with constrains [7],IC80 (µg/ml) with constrains [7],IC50 (µg/ml) with constrains [8],IC80 (µg/ml) with constrains [8],IC50 (µg/ml) with constrains [9],IC80 (µg/ml) with constrains [9],IC50 (µg/ml) with constrains [10],IC80 (µg/ml) with constrains [10],IC50 (µg/ml) with constrains [11],IC80 (µg/ml) with constrains [11],IC50 (µg/ml) with constrains [12],IC80 (µg/ml) with constrains [12],IC50 (µg/ml) with constrains [13],IC80 (µg/ml) with constrains [13],further results
B1,0.014 µg/mL,0.015 µg/mL,0.001 µg/mL,0.319 µg/mL,0.095 µg/mL,0.003 µg/mL,0.007 µg/mL,0.029 µg/mL,0.076 µg/mL,0.305 µg/mL,0.001 µg/mL,0.003 µg/mL,0.001 µg/mL,0.004 µg/mL,0.005 µg/mL,0.019 µg/mL,0.035 µg/mL,0.14 µg/mL,0.007 µg/mL,0.029 µg/mL,IC50 (µg/ml) with constrains [14]: 17.4 µg/mL; IC50 (µg/ml) with constrains [15]: 0.826 µg/mL; IC50 (µg/ml) with constrains [16]: 0.194 µg/mL; IC50 (µg/ml) with constrains [17]: 0.358 µg/mL; IC50 (µg/ml) with constrains [18]: 2.36 µg/mL; IC50 (µg/ml) with constrains [19]: 0.003 µg/mL; IC50 (µg/ml) with constrains [20]: 0.003 µg/mL; IC50 (µg/ml) with constrains [21]: 0.001 µg/mL; IC50 (µg/ml) with constrains [22]: > 100 µg/mL; IC50 (µg/ml) with constrains [23]: 0.008 µg/mL; IC80 (µg/ml) with constrains [23]: 0.033 µg/mL; IC50 (µg/ml) with constrains [24]: > 100 µg/mL; IC50 (µg/ml) with constrains [25]: 0.339 µg/mL; IC50 (µg/ml) with constrains [26]: 1.5 µg/mL; IC50 (µg/ml) with constrains [27]: > 100 µg/mL; IC50 (µg/ml) with constrains [28]: > 100 µg/mL
B2,0.035 µg/mL,0.009 µg/mL,0.004 µg/mL,0.295 µg/mL,0.039 µg/mL,0.003 µg/mL,0.005 µg/mL,0.021 µg/mL,0.043 µg/mL,0.17 µg/mL,0.003 µg/mL,0.011 µg/mL,0.001 µg/mL,0.004 µg/mL,0.004 µg/mL,0.017 µg/mL,0.065 µg/mL,0.261 µg/mL,0.018 µg/mL,0.071 µg/mL,IC50 (µg/ml) with constrains [14]: 9.98 µg/mL; IC50 (µg/ml) with constrains [15]: 0.473 µg/mL; IC50 (µg/ml) with constrains [16]: 0.275 µg/mL; IC50 (µg/ml) with constrains [17]: 0.464 µg/mL; IC50 (µg/ml) with constrains [18]: 3.62 µg/mL; IC50 (µg/ml) with constrains [19]: 0.001 µg/mL; IC50 (µg/ml) with constrains [20]: 0.004 µg/mL; IC50 (µg/ml) with constrains [21]: 0.002 µg/mL; IC50 (µg/ml) with constrains [22]: > 100 µg/mL; IC50 (µg/ml) with constrains [23]: 0.021 µg/mL; IC80 (µg/ml) with constrains [23]: 0.083 µg/mL; IC50 (µg/ml) with constrains [24]: > 100 µg/mL; IC50 (µg/ml) with constrains [25]: 0.187 µg/mL; IC50 (µg/ml) with constrains [26]: 1.49 µg/mL; IC50 (µg/ml) with constrains [27]: > 100 µg/mL; IC50 (µg/ml) with constrains [28]: > 100 µg/mL
B3,0.002 µg/mL,0.009 µg/mL,0.001 µg/mL,0.146 µg/mL,0.039 µg/mL,0.003 µg/mL,0.002 µg/mL,0.007 µg/mL,0.041 µg/mL,0.164 µg/mL,0.001 µg/mL,0.004 µg/mL,0.001 µg/mL,0.003 µg/mL,0.003 µg/mL,0.011 µg/mL,0.041 µg/mL,0.163 µg/mL,0.002 µg/mL,0.008 µg/mL,IC50 (µg/ml) with constrains [14]: 9.51 µg/mL; IC50 (µg/ml) with constrains [15]: 0.588 µg/mL; IC50 (µg/ml) with constrains [16]: 0.074 µg/mL; IC50 (µg/ml) with constrains [17]: 0.145 µg/mL; IC50 (µg/ml) with constrains [18]: 1.06 µg/mL; IC50 (µg/ml) with constrains [19]: 0.002 µg/mL; IC50 (µg/ml) with constrains [20]: 0.002 µg/mL; IC50 (µg/ml) with constrains [21]: 0.002 µg/mL; IC50 (µg/ml) with constrains [22]: > 100 µg/mL; IC50 (µg/ml) with constrains [23]: 0.007 µg/mL; IC80 (µg/ml) with constrains [23]: 0.029 µg/mL; IC50 (µg/ml) with constrains [24]: > 100 µg/mL; IC50 (µg/ml) with constrains [25]: 0.135 µg/mL; IC50 (µg/ml) with constrains [26]: 0.865 µg/mL; IC50 (µg/ml) with constrains [27]: > 100 µg/mL; IC50 (µg/ml) with constrains [28]: > 100 µg/mL
B4,0.025 µg/mL,0.061 µg/mL,0.007 µg/mL,18.9 µg/mL,0.094 µg/mL,0.034 µg/mL,0.016 µg/mL,0.064 µg/mL,0.148 µg/mL,0.594 µg/mL,0.001 µg/mL,0.005 µg/mL,0.001 µg/mL,0.003 µg/mL,0.006 µg/mL,0.022 µg/mL,0.28 µg/mL,1.12 µg/mL,0.046 µg/mL,0.182 µg/mL,IC50 (µg/ml) with constrains [14]: > 100 µg/mL; IC50 (µg/ml) with constrains [15]: 1.86 µg/mL; IC50 (µg/ml) with constrains [16]: 0.549 µg/mL; IC50 (µg/ml) with constrains [17]: 0.491 µg/mL; IC50 (µg/ml) with constrains [18]: 4.46 µg/mL; IC50 (µg/ml) with constrains [19]: 0.075 µg/mL; IC50 (µg/ml) with constrains [20]: 0.003 µg/mL; IC50 (µg/ml) with constrains [21]: 0.003 µg/mL; IC50 (µg/ml) with constrains [22]: > 100 µg/mL; IC50 (µg/ml) with constrains [23]: 0.013 µg/mL; IC80 (µg/ml) with constrains [23]: 0.05 µg/mL; IC50 (µg/ml) with constrains [24]: > 100 µg/mL; IC50 (µg/ml) with constrains [25]: 0.32 µg/mL; IC50 (µg/ml) with constrains [26]: 5.42 µg/mL; IC50 (µg/ml) with constrains [27]: > 100 µg/mL; IC50 (µg/ml) with constrains [28]: > 100 µg/mL
